For experiment [1], the target named is T1, human IL-2 (human, UniProt P60568 21-153).
T1 construct: The source is told for the ELISA; nothing else is said for the SPR
As to the kind of experiment: SPR; […], Biacore 8K+; […]; HBS-EP+; […]. The note with it: both partners purified. On the technique in general: In SPR one partner is held on a chip, and binding of the other changes the refractive index at the surface.

For experiment [2], the target named is T1, human IL-2. Description: SPR; multicycle kinetics, Biacore 8K+; knob domain constructs immobilised on a CM5 chip via amine coupling, IL-2 in solution; HBS-EP+; two-state binding model, only the fastest association and the slowest dissociation rate constants reported. The note with it: both partners purified.

Broadly, the Kd is the constant that tells how readily two partners part at equilibrium. Read a high Kd as a looser complex.

T1 sequence (P60568 21-153): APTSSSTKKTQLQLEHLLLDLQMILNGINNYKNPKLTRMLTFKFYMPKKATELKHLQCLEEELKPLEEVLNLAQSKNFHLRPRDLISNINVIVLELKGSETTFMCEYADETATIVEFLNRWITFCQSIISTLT

B1: aIL2_1-SNV-N (other)
chain: LKEVQDNIGSSCPESYRFHSDRWSRNCCIPDSWDDSYVWNCDHYAVRPAIGSLKRELADL
notes: also called aIL2_1, SNV-N framework; not shown: His8, C-terminal, kept
In the experiment with human IL-2 [1], B1 came in with a Kd of 9.4 nM.

B2: aIL2_1-BECN1 (other, bovine (knob domain))
chain: YQREYSEFKRQQLELDDELGSSCPESYRFHSDRWSRNCCIPDSWDDSYVWNCDHYAVRPAIGSLIQELEDVEKNRKIVAENL
notes: also called aIL2_1, BECN1 framework; not shown: His8, C-terminal, kept
As for B2, the affinity with human IL-2 [2], expressed as Kd, was 10.8 nM. This lies in the double-digit nanomolar range.

Source of the values: paper PMC11008599 (Frontiers in Immunology, 2024).
